B1: CDK4-001 (peptide)
peptide: TLWYRAPEV
notes: synthetic peptide from CDK4/CDK6
B2: TANC2-001 (peptide)
peptide: ALMDKEGLTAL
notes: synthetic peptide from TANC2
B3: SEC61G-001 (peptide)
peptide: AIMGFIGFFV
notes: synthetic peptide from SEC61G
B4: AKR-001 (peptide)
peptide: YLIHFPVSV
notes: synthetic peptide from AKR1C1, AKR1C2
B5: TPX2-001 (peptide)
peptide: KILEDVVGV
notes: synthetic peptide from TPX2
B6: TACC3-001 (peptide)
peptide: KLVEFDFLGA
notes: synthetic peptide from TACC3
B7: LAMC2-001 (peptide)
peptide: RLLDSVSRL
notes: synthetic peptide from LAMC2
B8: GALNT2-001 (peptide)
peptide: ALLRTVVSV
notes: synthetic peptide from GALNT2
B9: CEP192-001 (peptide)
peptide: SLFGNSGILENV
notes: synthetic peptide from CEP192
B10: BNC1-001 (peptide)
peptide: VLFPNLKTV
notes: synthetic peptide from BNC1
B11: DROSHA-001 (peptide)
peptide: AVVEFLTSV
notes: synthetic peptide from DROSHA
B12: HUWE1-001 (peptide)
peptide: RLLGPSAAADILQL
notes: synthetic peptide from HUWE1
B13: PCNXL3-001 (peptide)
peptide: GVLENIFGV
notes: synthetic peptide from PCNXL3
B14: COL12A1-002 (peptide)
peptide: FLVDGSWSV
notes: synthetic peptide from COL12A1
B15: RAD54B-001 (peptide)
peptide: SLYKGLLSV
notes: synthetic peptide from RAD54B
B16: CSE1-001 (peptide)
peptide: ALFPHLLQPV
notes: synthetic peptide from CSE1L

target: T1, HLA-A*0201 (human); assay: UV-ligand exchange, streptavidin/anti-b2m sandwich ELISA
T1 construct: MHC monomer first loaded with a UV-sensitive peptide that is cleaved and exchanged for the test peptide; captured on streptavidin; also called peptide-receptive MHC molecules
Text: Candidate peptides for the vaccines according to the present invention were further tested for immunogenicity by in vitro priming assays. The individual peptide-MHC complexes required for these assays were produced by UV-ligand exchange, where a UV-sensitive peptide is cleaved upon UV-irradiation, and exchanged with the peptide of interest as analyzed. Only peptide candidates that can effectively bind and stabilize the peptide-receptive MHC molecules prevent dissociation of the MHC complexes. To determine the yield of the exchange reaction, an ELISA was performed based on the detection of the light chain (β2m) of stabilized MHC complexes.
96 well MAXISorp plates (NUNC) were coated over night with 2ug/ml streptavidin in PBS at room temperature, washed 4× and blocked for 30 min at 37° C. in 2% BSA containing blocking buffer. Refolded HLAA*0201/MLA-001 monomers served as standards, covering the range of 8-500 ng/ml. Peptide-MHC monomers of the UV-exchange reaction were diluted 100 fold in blocking buffer. Samples were incubated for 1 h at 37° C., washed four times, incubated with 2ug/ml HRP conjugated anti-β2m for 1 h at 37° C., washed again and detected with TMB solution that is stopped with […]. Absorption was measured at 450 nm.

First: B1
Second: B2
The “Average exchange yield in %” value of the first is lower: 45% for the first, 71% for the second.

First: B3
Second: B4
The “Average exchange yield in %” value of the first is higher: 18% for the first, 13% for the second.

First: B5
Second: B6
The “Average exchange yield in %” value of the first is higher: 56% for the first, 54% for the second.

Compared with B7, B8 is higher in “Average exchange yield in %” value: 61% for the first, 73% for the second.

Going from B9 to B10, the “Average exchange yield in %” value falls from 56% to 43%.

Compared with B11, B12 is lower in “Average exchange yield in %” value: 68% for the first, 45% for the second.

First: B13
Second: B14
The “Average exchange yield in %” value of the first is higher: 87% for the first, 55% for the second.

Compared with B15, B16 is higher in “Average exchange yield in %” value: 48% for the first, 55% for the second.

From patent US20250066422A1 (published 2025)
